Measured values published in patent US20180319855A1, “GENETICALLY MUTATED AEQUORIN-BASED BIOSENSORS WITH EXTRA SENSITIVITY TO CALCIUM AND IMPROVED BIOLUMINESCENCE INTENSITY” (CENTRE NATIONAL DE LA RECHERCHE SCIENTIFIQUE (CNRS), priority 2015, published 2018).
Read-outs that look alike come from different tables or passages of the source.

B1: Redq/QT + AD: aporedquorin mutant Q159T + A123D (SEQ ID NO:25) (protein)
chain: MVSKGEEVIKEFMRFKVRMEGSMNGHEFEIEGEGEGRPYEGTQTAKLKVTKGGPLPFAWDILSPQFMYGSKAYVKHPADIPDYKKLSFPEGFKWERVMNFEDGGLVTVTQDSSLQDGTLIYKVKMRGTNFPPDGPVMQKKTMGWEASTERLYPRDGVLKGEIHQALKLKDGGHYLVEFKTIYMAKKPVQLPGYYYVDTKLDITSHNEDYTIVEQYERSEGRHHLFLGHGTGSTGSGSSGTASSEDNNMAVIKEFMRFKVRMEGSMNGHEFEIEGEGEGRPYEGTQTAKLKVTKGGPLPFAWDILSPQFMYGSKAYVKHPADIPDYKKLSFPEGFKWERVMNFEDGGLVTVTQDSSLQDGTLIYKVKMRGTNFPPDGPVMQKKTMGWEASTERLYPRDGVLKGEIHQALKLKDGGHYLVEFKTIYMAKKPVQLPGYYYVDTKLDITSHNEDYTIVEQYERSEGRHHLFLSGFDNPRWIGRHKHMFNFLDVNHNGKISLDEMVYKASDIVINNLGATPEQAKRHKDAVEAFFGGAGMKYGVETDWPAYIEGWKKLATDELEKYAKNEPTLIRIWGDALFDIVDKDQNGDITLDEWKAYTKAAGIIQSSEDCEETFRVCDIDESGTLDVDEMTRQHLGFWYTMDPACEKLYGGAVP
modifications: mutant aequorin
B2: Redq/QD + AT: aporedquorin mutant Q159D + A179T (SEQ ID NO:23) (protein)
chain: MVSKGEEVIKEFMRFKVRMEGSMNGHEFEIEGEGEGRPYEGTQTAKLKVTKGGPLPFAWDILSPQFMYGSKAYVKHPADIPDYKKLSFPEGFKWERVMNFEDGGLVTVTQDSSLQDGTLIYKVKMRGTNFPPDGPVMQKKTMGWEASTERLYPRDGVLKGEIHQALKLKDGGHYLVEFKTIYMAKKPVQLPGYYYVDTKLDITSHNEDYTIVEQYERSEGRHHLFLGHGTGSTGSGSSGTASSEDNNMAVIKEFMRFKVRMEGSMNGHEFEIEGEGEGRPYEGTQTAKLKVTKGGPLPFAWDILSPQFMYGSKAYVKHPADIPDYKKLSFPEGFKWERVMNFEDGGLVTVTQDSSLQDGTLIYKVKMRGTNFPPDGPVMQKKTMGWEASTERLYPRDGVLKGEIHQALKLKDGGHYLVEFKTIYMAKKPVQLPGYYYVDTKLDITSHNEDYTIVEQYERSEGRHHLFLSGFDNPRWIGRHKHMFNFLDVNHNGKISLDEMVYKASDIVINNLGATPEQAKRHKDAVEAFFGGAGMKYGVETDWPAYIEGWKKLATDELEKYAKNEPTLIRIWGDALFDIVDKDQNGAITLDEWKAYTKAAGIIQSSEDCEETFRVCDIDESGDLDVDEMTRQHLGFWYTMDPTCEKLYGGAVP
modifications: mutant aequorin
B3: E35G: aequorin mutation from random mutagenesis reported by Tsuzuki et al. 2005 (protein)
chain: SKLTSDFDNPRWIGRHKHMFNFLDVNHNGKISLDGMVYKASDIVINNLGATPEQAKRHKDAVEAFFGGAGMKYGVETDWPAYIEGWKKLATDELEKYAKNEPTLIRIWGDALFDIVDKDQNGAITLDEWKAYTKAAGIIQSSEDCEETFRVCDIDESGQLDVDEMTRQHLGFWYTMDPACEKLYGGAVP
B4: Aeq-wt: wild-type aequorin: apoaequorin of Aequorea victoria (SEQ ID NO:1) reconstituted with coelenterazine (protein, listed as Aequorea aequorea)
chain: SKLTSDFDNPRWIGRHKHMFNFLDVNHNGKISLDEMVYKASDIVINNLGATPEQAKRHKDAVEAFFGGAGMKYGVETDWPAYIEGWKKLATDELEKYAKNEPTLIRIWGDALFDIVDKDQNGAITLDEWKAYTKAAGIIQSSEDCEETFRVCDIDESGQLDVDEMTRQHLGFWYTMDPACEKLYGGAVP
modifications: reconstituted with coelenterazine; SITE (1)..(189) wild-type aequorin
B5: V44A: aequorin mutant, valine 44 replaced by alanine (protein)
chain: SKLTSDFDNPRWIGRHKHMFNFLDVNHNGKISLDEMVYKASDIAINNLGATPEQAKRHKDAVEAFFGGAGMKYGVETDWPAYIEGWKKLATDELEKYAKNEPTLIRIWGDALFDIVDKDQNGAITLDEWKAYTKAAGIIQSSEDCEETFRVCDIDESGQLDVDEMTRQHLGFWYTMDPACEKLYGGAVP

Assays:
[1] = Ca2+ sensitivity curves of reconstituted photoproteins (L/Lmax vs free Ca2+); format: biochemical; details: for EC50: read-out: Calcium sensitivity, EC50
Outline: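 Purified apoaequorin/redquorin mutants reconstituted overnight at 4 °C with 5 μM CLZ-f or native CLZ, then moved to zero-Ca2+ MOPS/KCl/EGTA buffer, pH 7.2. Luminescence in EGTA-buffered free-Ca2+ solutions, then saturating CaCl2 to obtain Lmax; EC50 from variable-slope sigmoidal fit of L/Lmax.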

[2] = Thermostability: relative bioluminescence activity after 30 min incubation; format: physicochemical; details: CLZ-f
Protocol: Thermostability of aequorin and redquorin mutant with increased affinity for calcium were compared to wt-aequorin (FIG. 5). The purified photoprotein samples were reconstituted with CLZ-f (as detailed earlier) and let to calibrate at room temperature (20-24° C.) for 20 min before taken the first measurement of total counts using saturating calcium solution (50 mM Tris-HCl, 100 mM CaCl2, pH 7.5). Samples were then incubated at two different temperatures (30 to 40° C.) for 30 min, and let equilibrate at room temperature for 15 minbefore taken the second measurement of total counts in the sample. The relative bioluminescence activity at each temperature was calculated by the ratio 2nd counts (at target T° C.)/1st counts (at initial T° C.) multiplied by 100.
Table 6 highlights the analysis of thermostability data obtained at two temperatures for aequorin and redquorin mutants, as well as CitA and GA. The values represent the degree of change in luminescence activity compared to wt-aeq, at each temperature. All values are relative to wt-aequorin (at each temperature) and were calculated by dividing the obtained data for each mutant/variant by the data for wt-aeq (as reference). The data were taken from FIG. 5.

endogenous P2Y2 receptor = test: Assay of activation of endogenous P2Y2 receptor by ATP in CHO cells stably expressing photoproteins; format: cell-based; details: CHO cells stably expressing the sensor; for EC50: ATP dose-response, read-out: EC50 (half-maximal effective concentration of ATP for P2Y2 activation)
Protocol: Stably prepared CHO cells were loaded with 5 μM coelenterazine in 130 mM NaCl, 5 mM KCl, 1 mM MgCl2, 2 mM CaCl2, 5 mM NaHCO3, 20 mM N-(2-hydroxyethyl) piperazine-N′-ethanesulfonic acid (HEPES), pH 7.4 for 4 h at ambient temperature.
To produce stable CHO cell lines, the cells transfected with GA and Redquorin variant plasmids were seeded on six-well plates and grown in the same medium with addition of Geneticin sulfate (G418) (Gibco, UK) at 1 mg/ml under the same conditions with replacement of the medium by fresh medium every 2 days. After 7-10 days of selection, CHO cells were transferred into a medium without antibiotic. To select clones with the highest bioluminescence activity, one run of limiting dilution was performed. CHO cells after G418 selection were seeded on 96-well plates (approximately 0.5 cells per well) and grown in DMEM/F12 medium supplemented with 10% fetal calf serum at 37° C., 5% CO2 for up to 80-90% confluence. Before the bioluminescence measurements, the plates with monoclones of CHO cells expressing the corresponding photoprotein were duplicated and grown for up to 90-100% confluence. Then, the medium was removed and cells were loaded with coelenterazine, and bioluminescence in each well was measured according to the procedure described earlier. As a result, the CHO cell clones with the highest bioluminescence activity were selected.
Assay of Activation of Endogenous P2Y2 Receptor in CHO Cells
The CHO cell lines stably expressing each photoprotein were used in assay of activation of endogenous P2Y2 receptor by ATP. The day before the measurements, the corresponding cells were seeded on 96-well plates with DMEM/F12 medium supplemented with 10% fetal calf serum and were grown at 37° C. with 5% CO2 for up to 90-100% confluence. Then, the medium was replaced by 100 μl of coelenterazine solution per well (5 μM coelenterazine in 130 mM NaCl, 5 mM KCl, 1 mM MgCl2, 2 mM CaCl2, 5 mM NaHCO3, 20 mM HEPES, pH7.4) and the cells were incubated at 23° C. for 4 h. Emission from photoproteins in the cells was measured using a Mithras LB 940 plate luminometer. The ATP was injected at a given concentration to trigger an intracellular Ca^2+ response in the cells and the measurement started immediately. The bioluminescence was integrated over a time interval of 0.05 s for 30 s.

[3] = Tsuzuki et al. 2005; cited from earlier work
[4] = background art; cited from earlier work
[5] = CLZ-f, redquorin series, CitA, GA
[6] = CLZ-native, redquorin series, CitA, GA
[7] = CLZ-f, L/Lmax compared to Aeq-wt

Molecule | EC50 [1, 5] [nM] | Relative intensity at pCa 6.5 ([1]; CLZ-f, relative to Redq) | Relative intensity at pCa 7.2 ([1]; CLZ-f, relative to Redq) | EC50 [1, 6] [nM] | Relative intensity at pCa 6.5 ([1]; CLZ-native, relative to Redq) | Relative intensity at pCa 7.2 ([1]; CLZ-native, relative to Redq) | Thermostability, luminescence activity relative to wt-aequorin ([2]; 30° C. for 30 min) | Thermostability, luminescence activity relative to wt-aequorin ([2]; 40° C. for 30 min) | [ATP] DL (detection limit) (endogenous P2Y2 receptor) [nM] | EC50 (endogenous P2Y2 receptor) [nM] | emission half-life (t½) [3] [s] | Relative intensity at pCa 6.5 [1, 7] | Relative intensity at pCa 7.2 [1, 7] | EC50 ([1]; aequorin proteins reconstituted with CLZ-f, sigmoidal curve fit, mean ± SD, n at least 3) [nM] | affinity of aequorin for calcium [4]
B1 | 336 ± 11 | 14.4 | 7.4 | 577 ± 33 | 14.4 | 10.0 | 0.94 | 1.00 | 1230 ± 51 | 3100 ± 400 |  |  |  |  | 
B2 | 252 ± 40 | 58.5 | 48.3 | 515 ± 20 | 32.1 | 24.5 | 1.00 | 1.03 | 562 ± 20 | 2000 |  |  |  |  | 
B3 |  |  |  |  |  |  |  |  |  |  | 40 |  |  |  | 
B4 |  |  |  |  |  |  | 1.00 | 1.00 |  |  | 0.8 | 1 | 1 | 659 ± 23 | around 1 μM
B5 |  |  |  |  |  |  |  |  |  |  | 34 |  |  |  | 
